B2: soluble EPCR (endothelial protein C receptor) (receptor, UniProt Q9UNN8 18-210, looked up)
chain: SQDASDGLQRLHMLQISYFRDPYHVWYQGNASLGGHLTHVLEGPDTNTTIIQLQPLQEPESWARTQSGLQSYLLQFHGLVRLVHQERTLAFPLTIRCFLGCELPPEGSRAHVFFEVAVNGSSFVSFRPERALWQADTQVTSGVVTFTLQQLNAYNRTRYELREFLEDTCVQYVQKHISAENTKGSQTSRSYTS
notes: also called sEPCR

Data set [1] addresses B2. Kind of data set: solid-phase ELISA, sEPCR coated on the plate, detection with anti-protein C polyclonal antibody; Kd(app). As for the experimental part: (§1) To evaluate the interaction of the wild-type PC, PC-Gla peptides, TFG, and TFMG with EPCR, 96-well flat microtiter plates were coated with soluble EPCR in 20 mM carbonate-bicarbonate buffer (pH 9.6) containing 0.02% sodium azaide, overnight at 4° C. After the plates were washed three times in TBS buffer (0.1 M NaCl, 0.02 M Tris-HCl, pH 7.4) containing 0.05% Tween 20, the plates were incubated with wild-type PC, PC-Gla peptides, TFG, and TFMG ([…]) diluted in the buffer for 1 h. After the plates were rinsed again, they were incubated with a goat anti-protein C polyclonal antibody (1:1000) for 1 h. Then, the plates were washed and incubated with rabbit anti-goat IgG (KPL, MD, 1:1000) for 1 h. After washing, the plates were incubated with 2,2′-azino-di(3-ethylbenzthiazoline-6-sulfonate) (ABTS; KPL, Gaithersburg, Md.). Colorimetric analysis was performed by measuring absorbance values at 405 nm.
(§2) First, a solid-phase ELISA was used to measure the binding affinity of TFG or TFMG toward the PC-Gla receptor, EPCR. In this assay, the efficiency of their binding to soluble EPCR (sEPCR) was compared. […] TFG and TFMG, respectively.
A general note: ELISA stands for enzyme-linked immunosorbent assay.

Data set [2] addresses T1, wild type Protein C (PC) (UniProt P04070 43-461).
T1 construct: also called wild-type PC
Described as above. As for the experimental part: as §1, §2

Data set [3] addresses T2, EPCR in mouse vena cava (mouse, UniProt Q64695 18-242).
T2 construct: whole, on cells; Endogenous receptor in tissue sections of C57BL/6 mice; also called EPCR (mouse, in vivo)
T2 sequence (looked up): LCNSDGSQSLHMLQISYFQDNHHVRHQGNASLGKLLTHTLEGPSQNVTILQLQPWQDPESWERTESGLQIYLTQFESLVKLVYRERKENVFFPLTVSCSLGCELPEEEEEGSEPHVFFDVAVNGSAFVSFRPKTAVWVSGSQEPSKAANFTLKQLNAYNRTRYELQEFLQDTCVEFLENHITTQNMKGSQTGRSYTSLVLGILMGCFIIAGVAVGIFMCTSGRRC
Kind of data set: immunohistochemistry of mouse vena cava after i.v. injection of the fluorescence-labelled molecule; comparison with TFG and TFMG. As for the experimental part:
Twenty-four hours prior to CLP surgery, fluorescence labeled-PC-Gla, TFG, and TFMG (200 nM/mouse) was intravenously injected into the mice, respectively. After 24 h, mouse vena cava was enucleated and fixed in visikol for 24 h. Subsequently, vena cava was embedded in optimum cutting temperature (OCT) compound (Tissue Tek) at −80° C. Consecutive sections were incubated with anti-EPCR antibody (Santa Cruz, Calif.), anti-rabbit Alexa 488 (green), anti-CD31 antibody, and anti-rabbit Alexa 350 (blue), and observed by confocal microscopy at 63× magnification (TCS-SP5, Leica microsystem, Germany).

Data set [4] concerns the target T3, TFMG (TRAP-ferritin monomer fragment-linker-PC-Gla fusion polypeptide).
T3 chain: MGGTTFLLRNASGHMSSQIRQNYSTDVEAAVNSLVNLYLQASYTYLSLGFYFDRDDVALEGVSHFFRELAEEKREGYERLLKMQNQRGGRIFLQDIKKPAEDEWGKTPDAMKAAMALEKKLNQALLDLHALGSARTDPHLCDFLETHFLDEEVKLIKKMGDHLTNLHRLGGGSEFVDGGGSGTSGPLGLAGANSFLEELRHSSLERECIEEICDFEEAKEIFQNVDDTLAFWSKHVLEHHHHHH

5 molecules from patent US20190016764A1 (KYUNGPOOK NATIONAL UNIVERSITY INDUSTRY ACADEMIC COOPERATION …, published 2019) can be followed below.

No end group written: not given here.

B1: TFG (TRAP-ferritin monomer fragment-PC-Gla fusion polypeptide) (other)
chain: MGGTTFLLRNASGHMSSQIRQNYSTDVEAAVNSLVNLYLQASYTYLSLGFYFDRDDVALEGVSHFFRELAEEKREGYERLLKMQNQRGGRIFLQDIKKPAEDEWGKTPDAMKAAMALEKKLNQALLDLHALGSARTDPHLCDFLETHFLDEEVKLIKKMGDHLTNLHRLGGGSEFVDGGGSGTSANSFLEELRHSSLERECIEEICDFEEAKEIFQNVDDTLAFWSKHVLEHHHHHH
notes: also called TRAP-ferritin-PC-Gla; TFG nanocage
For the molecule B1, in data set [1], the Kd came out at 31.5 nM.
The molecule B2 had a Kd in data set [2] of around 31.3 nM.

B3: PC-Gla peptide (Protein C Gla domain polypeptide) (peptide)
peptide: ANSFLEELRHSSLERECIEEICDFEEAKEIFQNVDDTLAFWSKHV
modifications: ends and bridges not checked; also: labelled with a fluorescent dye for cell and in vivo assays
notes: No gamma-carboxylation of Glu residues is stated; It was labelled with a fluorescent dye for the cell and in vivo assays; also called PC-Gla domain; PC-Gla peptides
Take B3: the binding result in data set [3] is reported as “binds”.

B4: TFMG (TRAP-ferritin monomer fragment-linker-PC-Gla fusion polypeptide) (other)
chain: MGGTTFLLRNASGHMSSQIRQNYSTDVEAAVNSLVNLYLQASYTYLSLGFYFDRDDVALEGVSHFFRELAEEKREGYERLLKMQNQRGGRIFLQDIKKPAEDEWGKTPDAMKAAMALEKKLNQALLDLHALGSARTDPHLCDFLETHFLDEEVKLIKKMGDHLTNLHRLGGGSEFVDGGGSGTSGPLGLAGANSFLEELRHSSLERECIEEICDFEEAKEIFQNVDDTLAFWSKHVLEHHHHHH
notes: also called TMFG; TFME
The molecule B4 registered a Kd in data set [1] of 30.7 nM.

B5: MMP-2 (matrix metalloproteinase-2), p-aminophenylmercuric acetate-activated (protein)
chain: YNFFPRKPKWDKNQITYRIIGYTPDLDPETVDDAFARAFQVWSDVTPLRFSRIHDGEADIMINFGRWEHGDGYPFDGKDGLLAHAFAPGTGVGGDSHFDDDELWTLGEGQVVRVKYGNADGEYCKFPFLFNGKEYNSCTDTGRSDGFLWCSTTYNFEKDGKYGFCPHEALFTMGGNAEGQPCKFPFRFQGTSYDSCTTEGRTDGYRWCGTTEDYDRDKKYGFCPETAMSTVGGNSEGAPCVFPFTFLGNKYESCTSAGRSDGKMWCATTANYDDDRKWGFCPDQGYSLFLVAAHEFGHAMGLEHSQDPGALMAPIYTYTKNFRLSQDDIKGIQELYGASPDIDLGTGPTPTLGPVTPEICKQDIVFDGIAQIRGEIFFFKDRFIWRTVTPRDKPMGPLLVATFWPELPEKIDAVYEAPQEEKAVFFAGNEYWIYSASTLERGYPKPLTSLGLPPDVQRVDAAFNWSKNKKTYIFAGDKFWRYNEVKKKMDPGFPKLIADAWNAIPDNLDAVVDLQGGGHSYFFKGAYYLKLENQSLKSVKFGSIKSDWLGC
As to B5, the “cleavage of the linker and release of PC-Gla (HPLC, MALDI-ToF)” value in data set [4] is “TFMG was cleaved by MMP-2 to release PC-Gla in agreement with the calculated mass (5,518.6 Da by MALDI-ToF)”.
